The results in this text go back to patent US20130123340A1.

This assay has as its target GFP-MG53 (mouse) (UniProt Q1XH17). Kind of assay: cell-based or functional assay.
Chain of UniProt Q1XH17 (Q1XH17 whole entry): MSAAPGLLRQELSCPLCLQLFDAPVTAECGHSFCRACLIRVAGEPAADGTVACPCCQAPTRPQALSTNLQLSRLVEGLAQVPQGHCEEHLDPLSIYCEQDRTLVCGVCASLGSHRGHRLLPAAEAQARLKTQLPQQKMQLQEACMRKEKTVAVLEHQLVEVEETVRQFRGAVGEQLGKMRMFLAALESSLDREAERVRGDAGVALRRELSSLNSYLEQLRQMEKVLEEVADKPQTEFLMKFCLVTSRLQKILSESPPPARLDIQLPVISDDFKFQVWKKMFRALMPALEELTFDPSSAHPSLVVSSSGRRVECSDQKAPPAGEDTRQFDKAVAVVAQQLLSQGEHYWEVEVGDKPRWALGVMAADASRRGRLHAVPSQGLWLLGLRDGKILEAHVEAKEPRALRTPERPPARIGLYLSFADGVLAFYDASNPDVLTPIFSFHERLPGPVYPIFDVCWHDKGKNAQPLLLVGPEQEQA

With “caveolin-3 overexpressed from pcDNA-Cav-3”, the reduction in the appearance of filapodia-like structures in C2C12 myoblasts transfected with caveolin-3 and GFP-MG53 (about 10:1) turned out to be 82%.
